{"source": "patent US11013692B2", "about": "“Method of drug formulation based on increasing the affinity of crystalline microparticle surfaces for active agents” (MannKind Corporation, priority 2005, dated 2021)", "key": {"[1]": {"assay": "Adsorption onto FDKP microparticles at pH 5.0 with increasing salt (sodium chloride)", "format": "physicochemical", "settings": "pH 5.0, 5 mg/mL FDKP microparticles, sodium chloride (FIGS. 8A-8D)", "description": "Each sample contained a different quantity of salt (sodium chloride), as indicated under each bar in FIGS. 8A-8D (units are mM). […] After a brief incubation, unbound active agent was removed by filtration and the particles with adsorbed active agent were redissolved. The amount of active agent and particle recovered was quantitated by HPLC, and expressed as a mass ratio (% loading).\nThis can be interpreted as evidence that the salt competed with the active agent for interaction with the particle surface. As the salt concentration was increased, it competed strongly and effectively for surface binding sites, and essentially displaced the active agent from the particle surfaces. It is also speculated, that decrease binding of the active agent to microparticle may be attributable to Debye shielding."}, "[2]": {"assay": "Saturation curves for adsorption of active agent onto FDKP microparticles at pH 5.0", "format": "physicochemical", "settings": "pH 5.0, constant 5 mg/mL FDKP microparticles (FIGS. 7A-7D)", "description": "When the hydration water is displaced by adsorption of the active agent, its structure relaxes and produces a net decrease in the ultrasonic velocity through the sample. […] These studies were conducted at pH 5.0 where optimal adsorption of the active agent to microparticles is observed."}, "[3]": {"assay": "Resuspension of dried active agent-coated FDKP microparticles in acid solution or water (filtration, HPLC)", "format": "physicochemical", "settings": "for Resuspended in Acidic solution, integrated HPLC peak area / Resuspended in water, integrated HPLC peak area: filtrate; for Resuspended in Acidic solution, integrated HPLC peak area / Redissolved after filtering away acidic solution, integrated HPLC peak area: final pH about 2.0, 215 nm; for Resuspended in water, integrated HPLC peak area / Redissolved after filtering away water, integrated HPLC peak area: final pH about 4.5, 215 nm; for Redissolved after filtering away acidic solution, integrated HPLC peak area / Redissolved after filtering away water, integrated HPLC peak area: retained particles dissolved; for Active Agent Standard solution, integrated HPLC peak area: 215 nm", "description": "The solvent was filtered from these suspensions and the retained particles were dissolved and collected. The amount of active agent in all of these samples was quantitated by HPLC.\nFor each of the lots, the active agent was released from the particles in the acidic solution. Therefore, by protonating the surfaces of the microcrystals, the active agent desorbs from the crystal surfaces."}, "[4]": {"assay": "Insulin binding to FDKP particles at different pH (unbound insulin in supernatant by HPLC)", "format": "physicochemical"}, "[5]": {"assay": "pH dependence of adsorption onto FDKP microparticles with excess protein (retentate mass ratio by HPLC)", "format": "physicochemical", "settings": "for type of monolayer formed: 5 mg/mL FDKP, 2 mg/mL protein", "description": "(An excess of protein, as referred to herein, is that amount over what is believed to be necessary to form a monolayer covering the accessible surface of the FDKP microparticle). After incubation, non-adsorbed protein was removed by filtration. The solids retained on the filter (retentate) were dissolved and the amounts of FDKP microparticles and protein retained on the filter were quantitated by HPLC. The protein/particle mass ratio was determined from this quantitation.\nInsulin was adsorbed (loaded) onto FDKP microparticles in a pH-controlled process by mixing an aqueous suspension of FDKP microparticles with an aqueous solution of insulin. […] The solid particles with adsorbed insulin were recovered from the filter (retentate), dissolved and collected. The amounts of insulin and dissolved FDKP microparticles were quantitated by HPLC. The amount of adsorbed insulin was calculated as a fraction of the total mass of retentate."}, "[6]": {"assay": "Ultrasonic glacial acetic acid titration of FDKP particles + insulin", "format": "physicochemical", "settings": "10 mg/mL FDKP, 1 mg/mL insulin; reduced interaction below about pH 2.9", "description": "This suspension was introduced into an ultrasonic spectrometer. While stirring gently, glacial acetic acid was gradually added in 5 μL aliquots to lower the pH. At each step in the titration ultrasonic data was collected.\nThe change in ultrasonic velocity was related (proportional) to the amount of surface area (hydration water) of the particles and/or macromolecules in the sample. […] This additional surface area was from free insulin in the suspension."}, "[7]": {"settings": "at the concentrations used; cited from earlier work"}}, "note": "Where no end group is shown, it is not given here."}
{"substance": "ghrelin: ghrelin, active agent adsorbed onto FDKP microparticles (GSSFLSPEHQRVQQRKESKKPPAKLQPR; ends and bridges not checked; UniProt Q9UBU3 24-51, looked up)", "values": [{"measurement": "effect of increasing ionic strength on adsorption", "setting": "[1]", "result": "reduced the extent of adsorption"}]}
{"substance": "PTH: parathyroid hormone", "values": [{"measurement": "adsorption as active agent concentration is increased", "setting": "[2]", "result": "reached saturation"}, {"measurement": "effect of increasing ionic strength on adsorption", "setting": "[1]", "result": "reduced the extent of adsorption"}]}
{"substance": "insulin: protein active agent adsorbed onto FDKP microparticles", "values": [{"measurement": "Resuspended in Acidic solution, integrated HPLC peak area", "setting": "[3]", "result": 980, "unit": "mAU * sec"}, {"measurement": "Resuspended in water, integrated HPLC peak area", "setting": "[3]", "result": 4, "unit": "mAU * sec"}, {"measurement": "Redissolved after filtering away acidic solution, integrated HPLC peak area", "setting": "[3]", "result": 49, "unit": "mAU * sec"}, {"measurement": "Redissolved after filtering away water, integrated HPLC peak area", "setting": "[3]", "result": 936, "unit": "mAU * sec"}, {"measurement": "Active Agent Standard solution, integrated HPLC peak area", "setting": "[3]", "result": 1103, "unit": "mAU * sec"}, {"measurement": "pH at which substantially complete binding is achieved", "setting": "[4]; insulin on FDKP particles", "result": "≥ 4.2"}, {"measurement": "insulin adsorbed from solution onto the particles", "setting": "[4]; pH 3.6", "result": "approximately 75%"}, {"measurement": "pH dependence of adsorption", "setting": "[5]; 5 mg/mL FDKP particles at varying pH, excess active agent (FIGS. 4A-D)", "result": "increased as a function of pH"}, {"measurement": "type of monolayer formed", "setting": "[5]; pH 3.5 through pH 4.5", "result": "non-continuous monolayers"}, {"measurement": "type of monolayer formed", "setting": "[5]; pH 5.0", "result": "continuous monolayer"}, {"measurement": "pH of association of protein with FDKP microparticles", "setting": "[6]", "result": "greater than 2.9"}]}
{"substance": "GLP-1: glucagon-like peptide 1", "values": [{"measurement": "adsorption as active agent concentration is increased", "setting": "[2]", "result": "reached saturation"}, {"measurement": "self association", "setting": "[7]", "result": "does not self associate"}]}
{"substance": "Insulin Aspart: a fast-acting type of insulin", "values": [{"measurement": "Resuspended in Acidic solution, integrated HPLC peak area", "setting": "[3]", "result": 893, "unit": "mAU * sec"}, {"measurement": "Resuspended in water, integrated HPLC peak area", "setting": "[3]", "result": 0, "unit": "mAU * sec"}, {"measurement": "Redissolved after filtering away acidic solution, integrated HPLC peak area", "setting": "[3]", "result": 29, "unit": "mAU * sec"}, {"measurement": "Redissolved after filtering away water, integrated HPLC peak area", "setting": "[3]", "result": 982, "unit": "mAU * sec"}, {"measurement": "Active Agent Standard solution, integrated HPLC peak area", "setting": "[3]", "result": 1099, "unit": "mAU * sec"}]}
